By Km is commonly meant the concentration of substrate that gives half-maximal velocity. As a reminder, the kcat is the number of substrate molecules converted per active site and unit of time at saturation. Usually stoichiometry N stands for the number of molecules, sites or subunits per partner or assembly.

This note sets out measurements from publication PMC10778931, “Structure–Functional Examination of Novel Ribonucleoside Hydrolase C (RihC) from Limosilactobacillus reuteri LR1” (International Journal of Molecular Sciences, 2023).

Substrate in the series “purified protein”: Nc1ccn([C@@H]2O[C@H](CO)[C@@H](O)[C@H]2O)c(=O)n1
As to the kind of experiment: purified protein. Conditions: Tris-HCl pH 7.5.

Substrate in series [1]: Nc1ncnc2c1ncn2[C@@H]1O[C@H](CO)[C@@H](O)[C@H]1O
As to the kind of experiment: HILIC-HPLC of released nucleobase, Michaelis-Menten fit. It counts as biochemical, Limosilactobacillus reuteri. The settings on record: Tris-HCl pH 7.5. The text has this: (§1) HILIC-HPLC of released nucleobase, Michaelis-Menten fit on LreRihC_HisN

Substrate in series [2]: O=c1[nH]c(=O)c2ncn([C@@H]3O[C@H](CO)[C@@H](O)[C@H]3O)c2[nH]1
The series is described as above. Conditions: Tris-HCl pH 7.5. Type of series: biochemical, Limosilactobacillus reuteri.
Source text: as §1

Substrate in series [3]: O=c1ccn([C@@H]2O[C@H](CO)[C@@H](O)[C@H]2O)c(=O)[nH]1
The series is described as above. Type of series: biochemical, Limosilactobacillus reuteri. The settings on record: Tris-HCl pH 7.5.
Source text: as §1

Substrate in series [4]: OC[C@H]1O[C@@H](n2cnc3c(O)ncnc32)[C@H](O)[C@@H]1O
Described as above. Type of series: biochemical, Limosilactobacillus reuteri. Conditions: Tris-HCl pH 7.5.
Source text: as §1

Substrate in series [5]: Nc1ncnc2c1ncn2[C@@H]1O[C@H](CO)[C@@H](O)[C@H]1O
The description is as above. It counts as biochemical, Limosilactobacillus reuteri. Conditions: Tris-HCl pH 7.5. The text has this: (§2) HILIC-HPLC of released nucleobase, Michaelis-Menten fit on LreRihC_HisC
The source holds these as a separate data set.

Substrate in series [6]: O=c1[nH]c(=O)c2ncn([C@@H]3O[C@H](CO)[C@@H](O)[C@H]3O)c2[nH]1
Described as above. It counts as biochemical, Limosilactobacillus reuteri. The settings on record: Tris-HCl pH 7.5.
Source text: as §2
This is another data set of the same source.

Substrate in series [7]: OC[C@H]1O[C@@H](n2cnc3c(O)ncnc32)[C@H](O)[C@@H]1O
The description is as above. Type of series: biochemical, Limosilactobacillus reuteri. Conditions: Tris-HCl pH 7.5.
Source text: as §2
The source holds these as a separate data set.

Series [8] concerns the molecule itself. Put plainly: SEC; analytical gel filtration on HiLoad 16/600 Superdex 200 pg, 1 mg of sample applied, mass read from a calibration curve (Gel Filtration Calibration Kit HMW).

B1: LreRihC_HisN (Limosilactobacillus reuteri) (protein)
chain: TTKIIMDTDPGIDDAAALTMAINDPSLDLKLVTTVAGNVTADKTTANALKIIHFFGKDIPVAAGAKQPLIKPFEDAARIHGESGMPGYDFGDDYGKPLDKTAVEALHDAIMAEDEVILVPTGSYTNIALLFSEYPEVKSHIKQIVAMGGSFSGGNMTSAAEFNVFTDPDAAKIMYNAGVPIVTVGLDVTLKALLTADTIEKLGSLNKTGEMLHGLITHYNDGNDQGRPMHDVNTIFYLLHPEAFTTKDMWVDIQTDGPAIGATVGDIRAAYHDGKTNAKVCLDIDAEYFNKWFLEEVSKMK
notes: E. coli BL21(DE3), pET24a(+); tetramer (121 kDa)
Consider B1, for which the Km in the series “purified protein” is on record as 680 ± 80 µM; in series [1], 420 ± 50 µM; in [2], 1200 ± 200 µM; in [3], 320 ± 40 µM; in series [4], 2500 ± 600 µM. For the same protein, the kcat in the series “purified protein” is 112 ± 4 s⁻¹; in [1] it was 118 ± 4 s⁻¹; in [2], 57 ± 8 s⁻¹; in series [3], 167 ± 6 s⁻¹; in [4], 30 ± 5 s⁻¹.

B2: LreRihC_HisC (Limosilactobacillus reuteri) (protein)
chain: MTTKIIMDTDPGIDDAAALTMAINDPSLDLKLVTTVAGNVTADKTTANALKIIHFFGKDIPVAAGAKQPLIKPFEDAARIHGESGMPGYDFGDDYGKPLDKTAVEALHDAIMAEDEVILVPTGSYTNIALLFSEYPEVKSHIKQIVAMGGSFSGGNMTSAAEFNVFTDPDAAKIMYNAGVPIVTVGLDVTLKALLTADTIEKLGSLNKTGEMLHGLITHYNDGNDQGRPMHDVNTIFYLLHPEAFTTKDMWVDIQTDGPAIGATVGDIRAAYHDGKTNAKVCLDIDAEYFNKWFLEEVSKMK
notes: E. coli BL21(DE3), pET24a(+); tetramer (123 kDa)
B2: the Km in the series “purified protein” was found to be 620 ± 60 µM; in [5], 480 ± 90 µM; in series [6], 1300 ± 200 µM; in [7], 2600 ± 600 µM. Further, the kcat in “purified protein” is 58 ± 6 s⁻¹; in series [5], 65 ± 7 s⁻¹; in series [6], 40 ± 6 s⁻¹; in series [7], 18 ± 6 s⁻¹.

B3: ribonucleoside hydrolase C from Limosilactobacillus reuteri LR1 with the addition of His-tag to the C-terminus of the enzyme (enzyme, UniProt A5JJT3 1-302, looked up)
chain: MTTKIIMDTDPGIDDAAALTMAINDPSLDLKLVTTVAGNVTADKTTANALKIIHFFGKDIPVAAGAKQPLIKPFEDAARIHGESGMPGYDFGDDYGKPLDKTAVEALHDAIMAEDEVILVPTGSYTNIALLFSEYPEVKSHIKQIVAMGGSFSGGNMTSAAEFNVFTDPDAAKIMYNAGVPIVTVGLDVTLKALLTADTIEKLGSLNKTGEMLHGLITHYNDGNDQGRPMHDVNTIFYLLHPEAFTTKDMWVDIQTDGPAIGATVGDIRAAYHDGKTNAKVCLDIDAEYFNKWFLEEVSKMK
notes: 308 residues and 33.38 kDa with the His-tag; PDB 8QND is the structure of the N-terminally tagged form of the same protein; source: E. coli BL21(DE3), purified (HisTrap FF, desalted on Sephadex G25); not shown: His6, C-terminal, kept
As to B3, in series [8], the “stoichiometry N” value was found to be 4.

B4: ribonucleoside hydrolase C from Limosilactobacillus reuteri LR1 with the addition of His-tag to the N-terminus of the enzyme (enzyme, UniProt A5JJT3 1-302, looked up)
chain: MTTKIIMDTDPGIDDAAALTMAINDPSLDLKLVTTVAGNVTADKTTANALKIIHFFGKDIPVAAGAKQPLIKPFEDAARIHGESGMPGYDFGDDYGKPLDKTAVEALHDAIMAEDEVILVPTGSYTNIALLFSEYPEVKSHIKQIVAMGGSFSGGNMTSAAEFNVFTDPDAAKIMYNAGVPIVTVGLDVTLKALLTADTIEKLGSLNKTGEMLHGLITHYNDGNDQGRPMHDVNTIFYLLHPEAFTTKDMWVDIQTDGPAIGATVGDIRAAYHDGKTNAKVCLDIDAEYFNKWFLEEVSKMK
notes: Ribonucleoside hydrolase C (RihC) of Limosilactobacillus reuteri LR1, cloned from genomic DNA with primers from the start codon to the stop codon; 308 residues and 33.38 kDa with the His-tag; The residue numbers printed for the crystal structure (D16, D20, D21, loop DGNDQ 228-232) seem to count on the tagged construct (surmised from the primer); Each subunit holds one Ca2+ ion; source: E. coli …
With B4, in series [8], the “stoichiometry N” value stood at 4.
